{"source": "patent US20250263754", "proteins": {"B1": {"name": "HRT1-linker-LDAP1 fusion protein (protein)", "chain": "GFLALLNVLTYCYELGVKYATIYAFSIDNFRRKPHEVQYVMDLMLEKIEGMIMEESIINAYDICVRFVGNLKLLSEPVKTAADKIMRATANNSKCVLLIAVCYTSTDEIVHAVEESSELNSNEVCNNQELEEANATGSGTVIQIENMESYSGIKLVDLEKNTYINPYPDVLIRTSGETRLSNYLLWQTTNCILYSPHALWPEIGLRHVVWAVINFQRHYSYLEKHKEYLKTGNSADGGGGSGGSGGSGGGSTQGMAEADAKLQNDTVQEDEVTTLKYLEFVQIAAVHAVVIVSSIYDFAKDNSGPLKPGVQTVEGTVKTVMSPVYEKIQDIPLELLKFADRKVDGFVQEVDRHVPVLVKQASSQAFSAAHRAPEVARSIKSELNRVGVVDTATEMTKAAYATLEPTAKDLYIRYEPVAEHYAVSAWRSLNRLPLFSEVAHIVVPTAAYWTDKYNKGVRYMEVKGFGVASYMPLVPTERIAKVFGEREEEIVLEMSPMTTSEVVN"}, "B2": {"name": "LDAP1-linker-HRT1 fusion protein (protein)", "chain": "MAEADAKLQNDTVQEDEVTTLKYLEFVQIAAVHAVVIVSSIYDFAKDNSGPLKPGVQTVEGTVKTVMSPVYEKIQDIPLELLKFADRKVDGFVQEVDRHVPVLVKQASSQAFSAAHRAPEVARSIKSELNRVGVVDTATEMTKAAYATLEPTAKDLYIRYEPVAEHYAVSAWRSLNRLPLFSEVAHIVVPTAAYWTDKYNKGVRYMEVKGFGVASYMPLVPTERIAKVFGEREEEIVLEMSPMTTSEVVNTGNSADGGGGSGGSGGSGGGSTQGGFLALLNVLTYCYELGVKYATIYAFSIDNFRRKPHEVQYVMDLMLEKIEGMIMEESIINAYDICVRFVGNLKLLSEPVKTAADKIMRATANNSKCVLLIAVCYTSTDEIVHAVEESSELNSNEVCNNQELEEANATGSGTVIQIENMESYSGIKLVDLEKNTYINPYPDVLIRTSGETRLSNYLLWQTTNCILYSPHALWPEIGLRHVVWAVINFQRHYSYLEKHKEYLK"}}, "molecular_target": "T1, HRBP (1-81), amino acids 1 to 81 of the Nogo-B receptor (NgBR) family protein HRBP from Hevea brasiliensis", "T1 chain": "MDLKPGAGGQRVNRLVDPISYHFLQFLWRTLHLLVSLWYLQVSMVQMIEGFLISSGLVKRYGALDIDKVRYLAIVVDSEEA"}
{"protein": "B1", "values": [{"measurement": "Enzymatic activity (prenyl chain elongation, radioactivity of [4-14C]IPP incorporated, dpm)", "value": 900, "unit": "dpm"}]}
{"protein": "B2", "values": [{"measurement": "Enzymatic activity (prenyl chain elongation, radioactivity of [4-14C]IPP incorporated, dpm)", "value": 837, "unit": "dpm"}]}
